Target: Growth Factor Receptor-bound 2 (GRB2), endogenous in HEK cells (human (endogenous in HEK), UniProt P62993 1-217)
Assay: co-IP

densitometry ratio SWELL1/GRB2 in the GRB2 immunoprecipitate: 0.31
B1: wild-type SWELL1 (SWELL1^WT), transiently expressed in HEK cells (natural protein, UniProt Q8IWT6 1-810, looked up)
chain: MIPVTELRYFADTQPAYRILKPWWDVFTDYISIVMLMIAVFGGTLQVTQDKMICLPCKWVTKDSCNDSFRGWAAPGPEPTYPNSTILPTPDTGPTGIKYDLDRHQYNYVDAVCYENRLHWFAKYFPYLVLLHTLIFLACSNFWFKFPRTSSKLEHFVSILLKCFDSPWTTRALSETVVEESDPKPAFSKMNGSMDKKSSTVSEDVEATVPMLQRTKSRIEQGIVDRSETGVLDKKEGEQAKALFEKVKKFRTHVEEGDIVYRLYMRQTIIKVIKFILIICYTVYYVHNIKFDVDCTVDIESLTGYRTYRCAHPLATLFKILASFYISLVIFYGLICMYTLWWMLRRSLKKYSFESIREESSYSDIPDVKNDFAFMLHLIDQYDPLYSKRFAVFLSEVSENKLRQLNLNNEWTLDKLRQRLTKNAQDKLELHLFMLSGIPDTVFDLVELEVLKLELIPDVTIPPSIAQLTGLKELWLYHTAAKIEAPALAFLRENLRALHIKFTDIKEIPLWIYSLKTLEELHLTGNLSAENNRYIVIDGLRELKRLKVLRLKSNLSKLPQVVTDVGVHLQKLSINNEGTKLIVLNSLKKMANLTELELIRCDLERIPHSIFSLHNLQEIDLKDNNLKTIEEIISFQHLHRLTCLKLWYNHIAYIPIQIGNLTNLERLYLNRNKIEKIPTQLFYCRKLRYLDLSHNNLTFLPADIGLLQNLQNLAITANRIETLPPELFQCRKLRALHLGNNVLQSLPSRVGELTNLTQIELRGNRLECLPVELGECPLLKRSGLVVEEDLFNTLPPEVKERLWRADKEQA
